The numbers were not newly measured in article PMC2895966, which cites them from elsewhere.

The target of the data set is Pyrrhocoricin (Pyrrhocoris apterus) (UniProt P37362).
Chain of Pyrrhocoricin (Pyrrhocoris apterus) (P37362 whole entry): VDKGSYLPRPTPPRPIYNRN

Chain of DnaK SBD (P0A6Y8 389-607): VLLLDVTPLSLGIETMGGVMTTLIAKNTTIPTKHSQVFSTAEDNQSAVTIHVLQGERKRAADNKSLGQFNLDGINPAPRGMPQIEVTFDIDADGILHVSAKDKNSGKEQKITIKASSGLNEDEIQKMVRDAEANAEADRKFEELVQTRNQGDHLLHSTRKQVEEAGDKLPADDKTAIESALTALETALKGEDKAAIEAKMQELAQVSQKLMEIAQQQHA

By Kd is commonly meant the constant that tells how readily two partners part at equilibrium. Regarding DnaK SBD (from UniProt P0A6Y8), the Kd was 50 µM.
